Experimental data from a protein production outcome set (Wang et al. 2014).

experiment: label from the status in PepcDB records

For “MSSTLWIFYDQYVQRATVDGLPTFIGPGEQATLRISSLKNDIQVRDQDGQCLIMTDGEELHTLPSGESCELTIDGKPYSFLYVGEAPSEKKYYMGHANLVTISNEPSANIVLPSDIEMDCTLLCERKEWTLYPKEGTQAPYVNGRKVSIPTQIVDGDEMLFGRVLLKIIEGNILVVESNETYETTLTQVETPTSLMQQQYPIYRRTPRMIYEQPTDKVEFSMPSEEIDDVGRPLWMILLPPVAIIVIMVTISIVFQRTWMLFMSVPIMTVMAVVATTMFFREKKKRKQKEEKRKRVYSRYLEVKRDELQALADAQRHALMYHFPTFEQMKNKARRVSSRIWERTIDNNDFLDIRIGRSSVPASFELNQPSDELSNRDRDELMDDFDRFREKYSHLENAPLRLSVARGALGYVGKPSIVEREVSQIIGQLAFAHSYHDLRFVAILNEEQRKKWEWMNWLPHFQLPGTEAKGFIYDEKACDHILNPLYHMLRERDLAQKETVEKKREKKRFLPHIVFFVANRSLIAEHGIMEYLEGKDKELGFTVIFLTDVAQNLNEHVHTIVKAVNRNEGEIVLLRNISIHKRFQFDAYDPASNENYARMLPSLHHQQGMTRSIPDMVSFMEMFPGVIQAKDLEIKKRWQTNDSTKSLAVPIGLKAKDELLELDAHEKMHGPHGLLAGTTGSGKSEFLQTYILSLAVNYHPHEVAFLLIDYKGGGMAQPFKGMPHLLGVITNIAESENFSARALASIRSELKKRQRLFDEHTVNHINDYTELYKAGTAKEPMPHLFIISDEFAELKNEEPEFIKELVSAARIGRSLGVHLLLATQKPSGVVDGQIWSNSRFRIALKVQNATDSREILKNEDAAYIKETGRGYLQIGSNEQYDLFQSAWSGAQYLRSAHDGEEEIAYVTDLGLKLVSRAEIKEDREQESITEIEAVVNEIAATTDELAIVPAKSPWLDPLEERIFYEATSSEDEAQAFPFALADDPENQRQFPICYDWGKSGNLMIFGTSGYGKSTTLLTLLLAFAEKRSPEQANYYVLDFGNGALLPLRQLRHTGDYIKMDEGRKLEKLIDYIEKEMERRSELFMEREVSNISVYNEVSDEPLPSIFIVIDNYDILPEEFSDQAPAFTRFARDGQSRGIYVFATVTARNAVKPVLLNSMNMKICHYMIEKTDLTSLLGRVPFAIESVPGRMIVAKDKNWLAHTYLPAKGENDFEVIENVKARIQTINDRYEDSKLPKSMAMLPKTLTLTGLRERIKEEPRLGIPLGLNEETVQPVYIDQDAGAHMVIAGEPKRGKSNVLKVILSFYFETDVEKIVLCDGVDRPLFDFSRKDKALYPTNAEELQHAVEELKQVMEERRMQYDEALQAGTEIPQFRPYLFVIDSFNEFKKMLGVSKEPAFAEMMQLYGHLEFRVIVAADHKDVSLGRGGVMGELKSARQLVLLVKKSAQSLVSFTHDRTEKLEDGFGYHVVNGRDTKIKIPEVVKEEAFIHS”, which protein production is on record?
Its protein production is “failed”.

For “MSSTTNPSTHHTSTIGAIGAPSRRNTELALLVFAVLIPVFAYANVGLAINDEVPAGLLSYGFGLGLLAGVGHLVVRKFAPYADPLLLPLATLLNGLGLVAIWRLDQSDRLQSSKLFVEAAPRQLMYSALGVALFVAVLVFLRDHRVLQRYTYISMAGALVLLLLPLVPGLGHDNFGAKIWIKIPGLGTLQPGEFAKIVLAVFFAGYLMVKRDALALASRRFMGLYLPRGRDLGPIIVVWIISILILVFETDLGTSLLFFGMFVIMLYVATERTSWIVFGLLMSAVGAVGVASFESHVQQRVQAWLDPMHEYELSRQGVFGHTEQSMQALWAFGSGGTLGSGWGQGNSDLIGFAANSDFILATFGEELGLAGLMALLLLYALIVERGVRTALAARDPFGKLLAIGLSGAFALQVFVVAGGVMGLIPLTGMTMPFLAYGGSSVIANWALIGILLRISDTARRPAPAAPANPDAEMTQVVRP”, which protein production is on record?
Its protein production is “failed”.

Which protein production does the source give for “MSSVCFSVSREKLSGDIMLEKLNHYRQNLNFPLARPKNSSTQFRFDWVDNLRELQEVQRFRATQFSHQFGIHFDDGLDQDLYDFNCEHAVLREKWTGEIVAYTRLKLFQGHELSQSYSAQEFDIVDKLSYLPNVVEIGRTCVHPKFRSGKALSTLWLNLVPKVLWSMKAKYLMGCVSIHLDDNAARVYHTHQKIQRLSAEQTIDISSKCAYEPTHPQFSFPQDERIPKLFQMYLTMQSKLSKEAFYDEDFNCLDYFVFLEVNKIAKSFVMNKMVQR” here?
The protein production was “failed”.

For “MSTARPRIITSKAPLLPQQTTPEQRYWRQYTSAQLVKEHNSVTHISFNPQHPHDFAVTSSTRVQIFSSRTRQVIKTFSRFKDVVYSASFRSDGKLLCAGDATGLVSVYDSYNPRTILLSINASTHPTHVTKFHTQDNKILATASDDRVTRLWDISNAYEPQLELTGATDYVRTLSFIPAAPHLVATGSYDGLIRLYDTRSSGSTPIYSLNHDQPVENVIAVSPTQIVSCGGNNFKVWDLTSNKKLYERGNFNKAVTCLDYVENFDSPMQSALIASSLDGHVKVFDPLDNFQVKFGWKFSGPVLSCAVSPSTAQGNRHLVAGLSSGLLAIRTKKKEKRSSDKENAPASFNKNAKSNNFQRMMRGSEYQGDQEHIIHNDKVRSQRRMRAFERNINQFKWSEALDNAFVPGMAKELTLTVLQELRKRGKVRVALYGRDESTLEPLLNWCLKGIEDVRSASIVADWVAVVLELYGNTLESSPVLQELMIDLKTKVRHEIHKSKEAQRIEGMLQLLTS”, which protein production is on record?
Its protein production is “failed”.

For “MSTASGITMASMSTYAILGCGSVGHAVAEELVEEGKDVLILDADEGRVEALRDQDLNAQQADICETDVAQTVADRDVVLIMSPDVNANAEAVRNIRESGGEQFIVARADDPVSADDLTELGADVVINPSAVIADSALRALETGELEYKASQLGDVIDGTEERMAILIHRSPDPDSIASAAALRAIAASRDVDADIIYEGEIGHQENRAFVNLLGIELTSNEDVNLDEYDTFALVDVAKGGEPAVESVDIVIDHYEHEHELEHDAAFSDIRPNISATSTILTKYIQELDLNLDQSVATALLYGIRAETLDFKRDTTPADLTAAAYLYPFADHDTLEQVESPSMSPETLDVLAEAIRNREVQGSHLVSNAGFIRDRDALAQAAQHLLNLEGITTTAVFAIADDTIYLAARSKDIRMNIGKVLSDAFGGMGETAGHSTDASVEIPLGIFTGLDTSDDNRDTLLELTEEAVKRKLFEAMGVDSSSSESSNGN”, which protein production is on record?
The protein production was “not failed”.

Which protein production does the source give for “MSTATLSGQSPSAQRRPMTREERRVIFASSLGTVFEWYDFYLYGSLAAIIAQHFFSGVNPTAAFIFALLAFAAGFAVRPFGALVFGRLGDLVGRKYTFLITIVIMGLSTFLVGVLPSYASIGIAAPAILIILRLLQGLALGGEYGGAATYVAEHAPHGRRGFYTSWIQTTATLGLFLSLLVILGVRTFMGEEAFKDWGWRIPFLISVVLLGISVWIRLQLNESPTFKRMKEEGKGSKAPIAESFGQWRNLKVVILALLGLTAGQAVVWYTGQFYALFFLTQSLKIDSNTANIMIAIALLVGTPFFVLFGALSDRIGRKPIIMAGCLIAALTYFPIFKGLTHYANPALEKAQATAPVTVIADPATCSFQFNPVGTASFTSSCDVVKSFMARNSVNYENQSAAAGSVAKVMIGNDEFASFDGKGLAPAEFKTKATELDKALTAAIRSHGYPAKADPAQTNYFMVVVLLTLLVIYVTMVYGPIAAMLVEMFPTRIRYTSMSLPYHIGNGWFGGFLPPVAFAVVAATGNIYDGLWYPIIIAVMTLVIGTLFVRETKDNDINA” here?
Its protein production is “not failed”.

With “MSTDILSAIGLTIIFVGLVLVIVGIVSGIIKSSKKERNENQREETKTEYGGVIFIGPIPIVFGSNKDMAKMALIIGVIMVVLIIAFVVLSYVV” as the sequence, how does the protein production read?
Its protein production is “failed”.

For “MSTDTCIKRPTRSELVDRFQKKIRAGEPIIGGGAGTGLSAKSEEAGDIDLIVIYNSGRYRMAGRGSLAGLLAYGNANQIVVDMAREVLPVVRHTPVLAGVNGTDPFMVMSTFLRELKEIGFAGVQNFPTVGLIDGLFRQNLEETGMSYAQEVEMIAEAHKLDLLTTPYVFSPEDAVAMAKAGADILVCHMGLTTGGAIGARSGKSMDDCVSLINECIEAARTIRDDIIILSHGGPIANPEDARFILDSCQGCHGFYGASSMERLPAEEAIRSQTLAFKAIRRQPA”, which protein production is on record?
Its protein production is “not failed”.

With “MSTEQLLVLIAQNDIKDDIVDTLIELEFLSGFSLGNICGFSREHSHFNIKEQVEGYREFCKFEIMHPAAQQAALLTALALVCKHNPCRYWIMPIYQNGTLS” as the sequence, how does the protein production read?
The protein production was “not failed”.

With “MSTIDFRPYGGFIFDMDGTLIDTMPAHLAAWQATADRFDFPFCQEWLHSLGGMPSFKIVAELNRHYGLSLDPQTVSKFKMETFAAMELQGDVIQCTGIVLEEYLGQKKIAVGTGSQRESAMRLLSHAGLIDRLDAVVTASDVENHKPCPDTFLLAADRLGIDAQNCLVFEDTELGKRAAHSAGMDCVMVEGNNLVFYPKR” as the sequence, how does the protein production read?
The protein production was “not failed”.
